Assay results published in patent US20230192867A1 (published 2023).
Values belong to the binder of their own block, whether it stands above or below them.

Columns and labels:
huGARP/hLTGF-β complex [1] = target: T1, huGARP/hLTGF-β complex (human, UniProt P01137 30-390); assay: cell-based or functional assay
huGARP/hLTGF-β complex [2] = target: T1, huGARP/hLTGF-β complex; assay: flow cytometry on activated primary human Tregs, PE secondary antibody
Method: Anti-huGARP antibodies GARP.2, GARP.3, 1H10, 3H5, 22G8 and a hIgG1 isotype control were incubated at 4° C. for 30 minutes with activated Tregs from a healthy donor in a 96 well plate at a starting concentrations of 40 μg/ml followed by serial dilutions. Activated Tregs were prepared from previously isolated and expanded Tregs stimulated for two days with anti-CD3/CD28 activation beads (ThermoFisher, Waltham, Mass., USA) in the presence of 100 units/mL of recombinant human IL-2. An appropriate PE secondary antibody against the primary anti-GARP antibody was applied and washed off after incubation for 15 minutes at 4° C. Samples were processed on a flow cytometer and PE fluorescence intensities analyzed on FLOWJO® flow cytometry system. EC50 calculations were derived using […] PRISM® data analysis software.

T1 sequence (chain, as listed by the source, form in doubt, chain 1 of 2): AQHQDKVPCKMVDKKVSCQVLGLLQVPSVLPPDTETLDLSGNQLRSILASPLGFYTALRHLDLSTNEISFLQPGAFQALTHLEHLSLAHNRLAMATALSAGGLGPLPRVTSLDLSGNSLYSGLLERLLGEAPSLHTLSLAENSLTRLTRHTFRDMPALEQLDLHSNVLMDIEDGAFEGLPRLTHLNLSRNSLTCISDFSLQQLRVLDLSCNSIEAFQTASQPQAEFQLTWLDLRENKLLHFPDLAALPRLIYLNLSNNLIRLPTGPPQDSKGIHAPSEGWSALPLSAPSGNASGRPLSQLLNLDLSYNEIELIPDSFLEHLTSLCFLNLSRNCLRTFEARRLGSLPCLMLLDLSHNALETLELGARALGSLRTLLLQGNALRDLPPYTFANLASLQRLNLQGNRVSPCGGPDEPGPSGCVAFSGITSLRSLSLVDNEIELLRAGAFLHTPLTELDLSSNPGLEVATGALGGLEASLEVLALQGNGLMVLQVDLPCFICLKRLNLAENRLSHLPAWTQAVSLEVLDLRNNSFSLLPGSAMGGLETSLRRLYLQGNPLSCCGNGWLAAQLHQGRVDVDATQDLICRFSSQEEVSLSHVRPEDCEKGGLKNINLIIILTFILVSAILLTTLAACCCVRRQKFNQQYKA
T1 sequence (P01137 30-390, form in doubt, chain 2 of 2): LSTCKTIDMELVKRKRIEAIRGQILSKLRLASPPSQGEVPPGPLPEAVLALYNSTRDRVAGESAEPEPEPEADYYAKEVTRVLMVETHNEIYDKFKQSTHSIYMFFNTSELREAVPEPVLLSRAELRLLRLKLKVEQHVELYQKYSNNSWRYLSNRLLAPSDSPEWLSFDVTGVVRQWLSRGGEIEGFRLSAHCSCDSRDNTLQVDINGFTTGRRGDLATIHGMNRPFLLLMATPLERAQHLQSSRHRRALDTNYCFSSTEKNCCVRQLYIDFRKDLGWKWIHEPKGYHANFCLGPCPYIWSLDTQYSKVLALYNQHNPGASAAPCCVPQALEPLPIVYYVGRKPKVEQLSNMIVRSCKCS

- TGF-β release (ELISA of soluble TGF-β after six hours, 3A9 cells expressing huGARP/latent TGF-β complex on αvβ8 integrin) (huGARP/hLTGF-β complex [1]): 16 fold
B1: anti-huGARP mAb 10H7 (antibody, IgG1, V domains shown)
VH: QVQLVESGGGVVQPGRSLRLSCAASEFTFSSYGMYWVRQAPGKGLEWVSIIWHDGSKKYYVDSVKGRFTISRDNSKNTLYLQMNSLRGEDTAVYYCAREQWESWYLDLWGRGTLVTVSS
VL: not shown

- EC50 (huGARP/hLTGF-β complex [2]): 0.61 nM
B2: anti-huGARP antibody GARP.2 (antibody, V domains shown)
VH: B1 VH
VL: not shown
notes: Variant of mAb 10H7 with a human IgG1.1 constant domain in place of the original IgG1; also called 10H7/GARP.2
